This note sets out measurements from paper PMC4837182.

The target in assay [1] is recombinant Plasmodium falciparum Hsp70-1 (PfHsp70-1), full length (Plasmodium falciparum). Description: SPR; ProteOn XPR36, ligand amine-coupled to GLC chip, analyte 125-2000 nM at 50 μl/min, PBS-Tween with 20 mM EDTA pH 7.4, 25 °C, Langmuir fit; with 5 mM ATP.
Assay [2] shares this target. Description: SPR; ProteOn XPR36, ligand amine-coupled to GLC chip, analyte 125-2000 nM at 50 μl/min, PBS-Tween with 20 mM EDTA pH 7.4, 25 °C, Langmuir fit; no nucleotide.
Assay [3] shares this target. In words: SPR; ProteOn XPR36, ligand amine-coupled to GLC chip, analyte 125-2000 nM at 50 μl/min, PBS-Tween with 20 mM EDTA pH 7.4, 25 °C, Langmuir fit; with 5 mM ADP.

Take “recombinant Plasmodium falciparum Hsp70-z (PfHsp70-z) (natural protein)”: the Kd was determined as 0.0241 µM in assay [1], 59.8 µM in assay [2] and 12.1 µM in assay [3]. Moreover, the koff in assay [1] came out at 2.42e-05 s⁻¹; in assay [2], 2.96e-05 s⁻¹; in assay [3], 3.61e-05 s⁻¹. Further, the kon amounted to 997 M⁻¹ s⁻¹ in assay [1], 0.495 M⁻¹ s⁻¹ in assay [2] and 298 M⁻¹ s⁻¹ in assay [3].
